Experimental data as given in paper PMC10371798 (2023).

Target: CA-FN domains of human RPTPζ (amino acid residues 34-410) fused to human IgG1 Fc, purified (human, UniProt P23471 34-410)
Test: AlphaScreen competition with biotinylated TNC(Fg)

IC50 [nM] | Binder
43 | Fg domain of human tenascin-C (amino acid residues 1975-2201) (domain or fragment) GLLYPFPKDCSQAMLNGDTTSGLYTIYLNGDKAEALEVFCDMTSDGGGWIVFLRRKNGRENFYQNWKAYAAGFGDRREEFWLGLDNLNKITAQGQYELRVDLRDHGETAFAVYDKFSVGDAKTRYKLKVEGYSGTAGDSMAYHNGRSFSTFDKDTDSAITNCALSYKGAFWYRNCHRVNLMGRYGDNNHSQGVNWFHWKGHEHSIQFAEMKLRPSNFRNLEGRRKRA
47 | Fg domain of human tenascin-R (amino acid residues 1129-1358) (domain or fragment) GRVFPHPQDCAQHLMNGDTLSGVYPIFLNGELSQKLQVYCDMTTDGGGWIVFQRRQNGQTDFFRKWADYRVGFGNVEDEFWLGLDNIHRITSQGRYELRVDMRDGQEAAFASYDRFSVEDSRNLYKLRIGSYNGTAGDSLSYHQGRPFSTEDRDNDVAVTNCAMSYKGAWWYKNCHRTNLNGKYGESRHSQGINWYHWKGHEFSIPFVEMKMRPYNHRLMAGRKRQSLQF
